Legend:
secreted, soluble Kex2 [1] = target: T1, secreted, soluble Kex2 (Saccharomyces cerevisiae, UniProt P13134 114-613, limits assumed); assay: calculated from kon (progress curves) and Ka
T1 construct: Secreted, soluble construct; also called kexin
T1 sequence (looked up): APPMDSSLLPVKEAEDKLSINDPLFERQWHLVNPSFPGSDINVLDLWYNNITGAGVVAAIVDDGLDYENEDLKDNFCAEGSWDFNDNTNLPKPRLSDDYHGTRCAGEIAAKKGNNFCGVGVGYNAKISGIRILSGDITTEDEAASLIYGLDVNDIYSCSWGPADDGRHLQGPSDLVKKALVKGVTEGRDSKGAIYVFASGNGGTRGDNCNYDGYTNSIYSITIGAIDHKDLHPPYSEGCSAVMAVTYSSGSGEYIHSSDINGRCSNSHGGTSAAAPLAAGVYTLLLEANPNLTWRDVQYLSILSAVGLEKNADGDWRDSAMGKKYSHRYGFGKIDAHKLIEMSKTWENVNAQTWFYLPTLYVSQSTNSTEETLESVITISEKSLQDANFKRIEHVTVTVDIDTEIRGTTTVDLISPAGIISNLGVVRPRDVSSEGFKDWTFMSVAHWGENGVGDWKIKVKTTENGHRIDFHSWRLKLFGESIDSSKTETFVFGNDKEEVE
Method: (§1) In some aspects of the present invention, biological application of the eglin c variants of the present invention as inhibitors of processing in vivo depends upon the rate of binding to target enzymes, where it is critical. Therefore, the rate of action of eglin variants with Kex2 and furin was examined by incubating 5×10⁻¹⁰ M enzyme with inhibitor at molar ratios of inhibitor to enzyme ranging from 10 to 80. […] The relationship between kobs and inhibitor concentration was linear. The values of kₒₙ were determined from the slope of such curves, and dissociation rate constants (koff) were calculated (koff=kₒₙ/Kₐ). For R4R1-eglin, koff was calculated to be 2×10⁻⁴s⁻¹ for Kex2, and 3×10⁻⁴s⁻¹ for furin. […] Similarly, the t_{1/2} of the complex of M4R1-eglin with Kex2 was estimated to be 3 h. For complex of R4K1-eglin with furin, koff was calculated to be 2×10⁻⁴s⁻¹ implying that the koff and t_{1/2} for this complex are similar to those for the complex of R4R1-eglin with furin.

secreted, soluble furin [2] = target: T2, secreted, soluble furin (human, UniProt P09958 108-715, limits assumed); assay: calculated from kon (progress curves) and Ka
T2 construct: Secreted, soluble construct; also called human furin
T2 sequence (P09958 108-715 limits assumed): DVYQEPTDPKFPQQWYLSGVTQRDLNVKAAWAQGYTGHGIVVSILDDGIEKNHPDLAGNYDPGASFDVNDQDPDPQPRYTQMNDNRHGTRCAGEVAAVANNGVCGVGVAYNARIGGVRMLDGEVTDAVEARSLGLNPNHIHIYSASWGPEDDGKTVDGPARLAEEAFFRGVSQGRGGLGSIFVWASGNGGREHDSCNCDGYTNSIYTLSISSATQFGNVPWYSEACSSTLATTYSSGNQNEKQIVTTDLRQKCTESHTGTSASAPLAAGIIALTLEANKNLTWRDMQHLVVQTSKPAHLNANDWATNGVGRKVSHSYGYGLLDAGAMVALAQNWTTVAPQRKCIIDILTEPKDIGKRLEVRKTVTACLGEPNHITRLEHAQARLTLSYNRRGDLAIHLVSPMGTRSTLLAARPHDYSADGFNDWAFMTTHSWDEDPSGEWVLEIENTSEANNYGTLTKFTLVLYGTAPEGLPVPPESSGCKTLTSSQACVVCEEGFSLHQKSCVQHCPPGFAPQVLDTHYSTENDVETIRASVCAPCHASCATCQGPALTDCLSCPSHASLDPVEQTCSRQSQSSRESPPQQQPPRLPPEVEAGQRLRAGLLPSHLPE
Method: as §1

secreted, soluble Kex2 [3] = target: T1, secreted, soluble Kex2; assay: equilibrium enzyme inhibition
secreted, soluble furin [4] = target: T2, secreted, soluble furin; assay: equilibrium enzyme inhibition
human PC7 = target: T3, human PC7 (human, UniProt Q16549 142-667, limits assumed); assay: enzyme inhibition, purified variant; Kassoc
T3 sequence (looked up): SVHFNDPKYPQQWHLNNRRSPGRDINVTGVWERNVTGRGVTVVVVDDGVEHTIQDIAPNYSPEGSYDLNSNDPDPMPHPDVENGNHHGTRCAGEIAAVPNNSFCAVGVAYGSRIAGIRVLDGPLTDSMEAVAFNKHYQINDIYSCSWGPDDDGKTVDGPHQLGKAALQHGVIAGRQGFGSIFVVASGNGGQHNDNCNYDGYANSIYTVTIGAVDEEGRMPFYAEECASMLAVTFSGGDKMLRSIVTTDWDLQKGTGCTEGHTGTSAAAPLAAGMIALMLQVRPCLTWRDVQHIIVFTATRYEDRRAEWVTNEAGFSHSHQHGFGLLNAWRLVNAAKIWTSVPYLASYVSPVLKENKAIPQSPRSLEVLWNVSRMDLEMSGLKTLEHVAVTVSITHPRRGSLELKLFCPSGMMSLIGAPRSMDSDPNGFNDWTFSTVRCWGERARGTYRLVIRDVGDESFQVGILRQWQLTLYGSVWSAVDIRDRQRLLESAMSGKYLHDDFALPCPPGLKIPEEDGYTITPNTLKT

secreted, soluble Kex2 [5] = target: T1, secreted, soluble Kex2; assay: enzyme inhibition, purified variant; Kassoc
secreted, soluble furin [6] = target: T2, secreted, soluble furin; assay: enzyme inhibition, purified variant; Kassoc
secreted, soluble Kex2 [7] = target: T1, secreted, soluble Kex2; assay: estimated from koff
Method: as §1

secreted, soluble furin [8] = target: T2, secreted, soluble furin; assay: estimated from koff
Method: as §1

koff (secreted, soluble Kex2 [1]): 0.0002 s⁻¹
koff (secreted, soluble furin [2]): 0.0003 s⁻¹
fold decrease in affinity relative to M4R1-eglin (secreted, soluble Kex2 [3]): 2.5 fold
fold stronger binding by Kex2 than by furin (secreted, soluble Kex2 [3]): ~3 fold
fold higher affinity than L1-eglin (secreted, soluble furin [4]): 46000 fold
fold increase in affinity relative to M4R1-eglin (secreted, soluble furin [4]): 1430 fold
Ka (human PC7): 7.7e+08 M⁻¹
Ka (secreted, soluble Kex2 [5]): 1.1e+09 M⁻¹
Ka (secreted, soluble furin [6]): 4e+08 M⁻¹
half-life (t1/2) of the complex (secreted, soluble Kex2 [7]): ~1 h
half-life (t1/2) of the complex (secreted, soluble furin [8]): ~1 h
B1: R4R1-eglin (designed binder)
chain: SMGSELKSFPEVVGKTVDQAREYFTLHYPQYDVYFLPEGSRVTRDLRYNRVRVFYNPGTNVVNHVPHVG
notes: N-terminal Met removed; also called Tyr49-R4R1-; D33Y49
